B1: fGULO (full-length rat GULO, fGULO-His) (Rattus norvegicus) (protein)
chain: MVHGYKGVQFQNWAKTYGCSPEVYYQPTSVEEVREVLALAREQKKKVKVVGGGHSPSDIACTDGFMIHMGKMNRVLQVDKEKKQITVEAGILLADLHPQLDEHGLAMSNLGAVSDVTVAGVIGSGTHNTGIKHGILATQVVALTLMTADGEVLECSESRNADVFQAARVHLGCLGIILTVTLQCVPQFHLQETSFPSTLKEVLDNLDSHLKRSEYFRFLWFPHTENVSIIYQDHTNKAPSSASNWFWDYAIGFYLLEFLLWTSTYLPCLVGWINRFFFWMLFNCKKESSNLSHKIFTYECRFKQHVQDWAIPREKTKEALLELKAMLEAHPKVVAHYPVEVRFTRGDDILLSPCFQRDSCYMNIIMYRPYGKDVPRLDYWLAYETIMKKFGGRPHWAKAHNCTQKDFEEMYPTFHKFCDIREKLDPTGMFLNSYLEKVFY
B2: cGULO (C-terminal catalytic domain of rat GULO, cGULO-His) (Rattus norvegicus) (protein)
chain: NRFFFWMLFNCKKESSNLSHKIFTYECRFKQHVQDWAIPREKTKEALLELKAMLEAHPKVVAHYPVEVRFTRGDDILLSPCFQRDSCYMNIIMYRPYGKDVPRLDYWLAYETIMKKFGGRPHWAKAHNCTQKDFEEMYPTFHKFCDIREKLDPTGMFLNSYLEKVFY
notes: C-terminal cytoplasmic (catalytic ALO) domain, 167 residues, lacks 273 N-terminal residues incl

Substrate: O=C1O[C@H]([C@@H](O)CO)[C@H](O)[C@@H]1O
Assay: ascorbic acid formation, colorimetric kit; Lineweaver-Burk
Type: biochemical, Rattus norvegicus
Details: 50 mM potassium phosphate pH 7.0, 50 mM citrate, 1 mM DTT, 10 µM FAD, aerobic (O2), 37 °C

Protein	Km [µM]
B1	53.5 ± 5
B2	42 ± 6.3

— article PMC11352566, “Recombinant C-Terminal Catalytic Domain of Rat L-Gulono Lactone Oxidase Produced in Bacterial Cells Is Enzymatically Active” (Current Issues in Molecular Biology, 2024)
